In patent US20230382979A1 (ADAPTIVE BIOTECHNOLOGIES, published 2023):

Experiments:
[1] = molecular target: SARS-CoV-2 spike protein, WA1/2020, borne on lentiviral pseudovirus (SARS-CoV-2, WA01/2020 strain, UniProt P0DTC2 14-1273); assay: cell-based or functional assay
MERS-COV (S1+S2) = molecular target: T1, MERS-COV (S1+S2); assay: dose-response ELISA on coated spike antigen
T1 chain: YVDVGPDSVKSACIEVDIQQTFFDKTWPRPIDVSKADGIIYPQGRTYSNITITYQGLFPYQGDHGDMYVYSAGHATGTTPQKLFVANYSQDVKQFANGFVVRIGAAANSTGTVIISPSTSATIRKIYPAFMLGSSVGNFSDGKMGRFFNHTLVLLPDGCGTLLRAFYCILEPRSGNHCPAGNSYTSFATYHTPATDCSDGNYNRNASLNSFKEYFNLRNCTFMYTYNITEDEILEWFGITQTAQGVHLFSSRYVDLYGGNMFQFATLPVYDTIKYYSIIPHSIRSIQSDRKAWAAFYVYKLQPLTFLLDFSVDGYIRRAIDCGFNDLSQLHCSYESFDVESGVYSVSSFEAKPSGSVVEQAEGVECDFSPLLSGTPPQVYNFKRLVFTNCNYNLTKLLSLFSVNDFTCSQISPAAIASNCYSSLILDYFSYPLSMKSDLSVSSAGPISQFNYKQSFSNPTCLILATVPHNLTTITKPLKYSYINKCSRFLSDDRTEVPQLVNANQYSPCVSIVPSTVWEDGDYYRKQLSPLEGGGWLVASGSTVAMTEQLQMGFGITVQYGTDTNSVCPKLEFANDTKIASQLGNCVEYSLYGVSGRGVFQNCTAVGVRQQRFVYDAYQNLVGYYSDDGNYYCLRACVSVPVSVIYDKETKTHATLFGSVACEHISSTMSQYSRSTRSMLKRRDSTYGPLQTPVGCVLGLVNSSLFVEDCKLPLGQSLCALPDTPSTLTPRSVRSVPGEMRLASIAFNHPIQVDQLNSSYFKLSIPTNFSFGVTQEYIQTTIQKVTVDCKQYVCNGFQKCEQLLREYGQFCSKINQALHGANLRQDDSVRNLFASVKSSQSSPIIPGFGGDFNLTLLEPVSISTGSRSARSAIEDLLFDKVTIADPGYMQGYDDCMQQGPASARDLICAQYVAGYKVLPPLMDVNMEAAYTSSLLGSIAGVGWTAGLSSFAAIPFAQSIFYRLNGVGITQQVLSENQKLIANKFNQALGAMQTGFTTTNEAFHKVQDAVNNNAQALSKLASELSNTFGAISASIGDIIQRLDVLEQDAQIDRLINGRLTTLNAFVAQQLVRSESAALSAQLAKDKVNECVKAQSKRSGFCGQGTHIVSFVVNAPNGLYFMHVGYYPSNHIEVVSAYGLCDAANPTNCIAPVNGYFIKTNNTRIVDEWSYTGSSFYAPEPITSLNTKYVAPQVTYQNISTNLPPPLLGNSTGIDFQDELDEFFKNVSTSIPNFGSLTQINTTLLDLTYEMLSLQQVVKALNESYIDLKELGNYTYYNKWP

MERS-COV (S2) = molecular target: T2, MERS-COV (S2); assay: dose-response ELISA on coated spike antigen
T2 chain: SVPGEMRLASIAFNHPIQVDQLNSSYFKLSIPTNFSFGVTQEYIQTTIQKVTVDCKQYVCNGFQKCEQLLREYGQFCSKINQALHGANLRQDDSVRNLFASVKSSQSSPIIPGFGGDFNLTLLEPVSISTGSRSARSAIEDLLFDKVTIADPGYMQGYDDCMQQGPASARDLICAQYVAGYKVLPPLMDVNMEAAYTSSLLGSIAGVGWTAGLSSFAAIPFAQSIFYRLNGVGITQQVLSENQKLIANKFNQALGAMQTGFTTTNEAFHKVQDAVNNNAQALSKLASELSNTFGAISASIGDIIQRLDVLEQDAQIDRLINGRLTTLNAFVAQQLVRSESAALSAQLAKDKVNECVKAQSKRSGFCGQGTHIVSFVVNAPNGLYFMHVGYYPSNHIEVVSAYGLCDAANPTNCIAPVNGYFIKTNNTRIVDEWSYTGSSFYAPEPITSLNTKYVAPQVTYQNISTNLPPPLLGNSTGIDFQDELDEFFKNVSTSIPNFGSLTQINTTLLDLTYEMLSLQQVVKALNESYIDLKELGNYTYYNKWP

[2] = molecular target: T3, SARS-CoV-2 nucleocapsid (N) protein (SARS-CoV-2, UniProt P0DTC9 1-419); assay: ELISA, antibody at 0.1 ug/mL
[3] = molecular target: T4, S2 subunit of the SARS-CoV-2 spike protein, WA01/2020 strain (SARS-CoV-2, WA01/2020 strain, UniProt P0DTC2 686-1213); assay: ELISA, antibody at 0.1 ug/mL
[4] = molecular target: T5, SARS-CoV-2 spike (S) protein trimer, WA01/2020 strain (SARS-CoV-2, WA01/2020 strain, UniProt P0DTC2 16-1213)
[5] = molecular target: T5, SARS-CoV-2 spike (S) protein trimer, …; assay: dose-response ELISA on coated antigen
[6] = molecular target: T6, S1 subunit of the SARS-CoV-2 spike protein, WA01/2020 strain (SARS-CoV-2, WA01/2020 strain, UniProt P0DTC2 16-685); assay: dose-response ELISA
[7] = molecular target: T3, SARS-CoV-2 nucleocapsid (N) protein; assay: ELISA screening, antibody concentration not given
[8] = molecular target: T6, S1 subunit of the SARS-CoV-2 spike …; assay: ELISA screening, antibody concentration not given
[9] = molecular target: T5, SARS-CoV-2 spike (S) protein trimer, …; assay: ELISA screening, antibody concentration not given
[10] = molecular target: T4, S2 subunit of the SARS-CoV-2 spike …; assay: ELISA screening, antibody concentration not given
[11] = molecular target: T6, S1 subunit of the SARS-CoV-2 spike …
[12] = molecular target: T6, S1 subunit of the SARS-CoV-2 spike …; assay: dose-response ELISA on coated antigen
[13] = molecular target: T4, S2 subunit of the SARS-CoV-2 spike …; assay: dose-response ELISA on coated spike antigen
[14] = molecular target: T3, SARS-CoV-2 nucleocapsid (N) protein; assay: ELISA, antibody at 0.1 ug/mL; remark: listed apart in the source
[15] = molecular target: SARS-CoV (2003) spike protein borne on lentiviral pseudovirus (SARS-CoV (2003), UniProt P59594 14-1255); assay: cell-based or functional assay
[16] = molecular target: T5, SARS-CoV-2 spike (S) protein trimer, …; assay: dose-response ELISA on coated spike antigen

B1: antibody 1589 (antibody, V domains shown)
VH: EVQLVESGGGLIQVGGSLRLSCAASGLTVTSNYMNWVRQGPGKGLEWVSLIYSGGTTYYADSVKGRFTISRDDSKNTLYLQMNSLRAEDTAVYYCARPIVGARSGMDVWGQGTAVTVSS
VL: DIQMTQSPSSLSASVGDRVTITCQASQDINKYLNWYQQKPGKAPKLLIYDASNLETGVPSRFSGSGSGTDFTFTISSLQPEDLATYYCHQFDNLPGTFGGGTKVEIK
With B1 the “Pseudo Neut, WA1/2020 IC50 (pM)” value [1] was 1170 pM, the binding result (MERS-COV (S1+S2)) was “no binding (tested: 10000 ng/ml)” and the binding result (MERS-COV (S2)) was “no binding (tested: 10000 ng/ml)”. B1: no binding (tested: 0.1 ug/mL) [2]; no binding (tested: 0.1 ug/mL) [3].

B2: antibody 2432 (antibody, V domains shown)
VH: QVQLVQSGAEVKKPGSSVKVSCKASGDTFSSYAISWVRQAPGQGLEWLGGIIPIFGSADYAQKFQGRVTITADEFTSTAYMELSSLRSEDTAVYFCAREKYGDYGEGPLYNFDYWGQGTLVTVSS
VL: not shown
With B2 the Kd [4] was 0.243 nM, the EC50 [5] was 0.024 nM and the binding result [6] was “no binding”.

B3: antibody 1915 (antibody, V domains shown)
VH: QVQLVESGGGVVQPGRSLRLSCAASGFTFSSYAMHWVRQAPGKGLEWVAVISYDGSNKYYADSVKGRFTISRDNSKNTLYLQMDSLRAQDTAVYYCATPRDMFSSGWSSPFDYWGQGTLVTVSS
VL: DIQMTQSPSSLSASVGDRVTITCQASQDISIYLTWYQQKPGKAPKLLIYGASNLEVEVPSRFSGSGSGTEFTLTISSLQPEDFATYFCQHSDDLPVTFGGGTKVEVK
B3: no binding (tested: not printed) [7]; no binding (tested: not printed) [8]; no binding (tested: not printed) [9]. B3: no binding (tested: not printed) [10].

B4: antibody 2793 (antibody, V domains shown)
VH: QVQLVQSGAEVKKPGASVKVSCKVSGFTLPELSIHWVRQAPGKGLEWMGGFDPEDAKTIYAQKFQGRVTMTEDTSTDIAYMELNSLRSDDTAVYYCATGSPFGVVGNWLDPWGQGTLVTVSS
VL: QSALTQPASVSGSPGQSITISCTGTSSDVGDFSYVSWYQQHPGKAPKLMIYEVTKRPSGVSNRFSGSKSGNTASLTISGLQTEDEADYYCTSYTSSRLVLFGGGTKLTVL
B4 was tested, and the Kd [11] was 0.398 nM, the EC50 [12] was 0.113 nM and the EC50 [5] was 0.068 nM. B4: no binding (tested: 10000 ng/ml) (MERS-COV (S1+S2)); no binding (tested: 10000 ng/ml) (MERS-COV (S2)); no binding (tested: 10000 ng/ml) [13]. B4: no binding (tested: 0.1 ug/mL) [14].

B5: antibody 1439 (antibody, V domains shown)
VH: QVQLQESGPGLVKPSETLSLTCTVSGDSISTYYWSWIRQPPGKGLEWIGYIHYSGSTNYNPSLKSRVAVSVDTSKNQFSLKLSSVTAADTAVYYCARGGGVFGVVINFDYWGQGILVTVSS
VL: NFMLTQPYSVSESPGKTVTISCTRSSGSIASNYVQWYQQRPGSAPTTVIYEDNQRPSGVPDRFSGSIDSSSNSASLTISGLKTEDEADYYCQSRDSSNPVVFGGGTKLTVL
For B5, the “Pseudo Neut, SARS-CoV 2003 IC50” value [15] was 29 nM, the “Pseudo Neut, WA1/2020 IC50 (pM)” value [1] was 30200 pM and the binding result (MERS-COV (S1+S2)) was “no binding (tested: 10000 ng/ml)”. For the same binder, the binding result (MERS-COV (S2)) was “no binding (tested: 10000 ng/ml)” and the “EC50 (read off the curve)” value [16] was roughly 0.1 µg/mL.

B6: antibody 2606 (antibody, V domains shown)
VH: EVQLVESGGGLVKPGGSLRLSCAASGFTFSSYSMNWVRQAPGKGLEWVSSITSSSGYMYYADSVKGRFTISRDNAKNSLYLQLNSLRAEDTAVYYCAKDSAFDLWEVRSYYYVMDVWGQGTTVTVSS
VL: not shown
For B6, the Kd [4] was 0.00787 nM, the EC50 [5] was 0.057 nM and the binding result [6] was “no binding”.

B7: antibody 1959 (antibody, V domains shown)
VH: QVQLVQSGTEVKKPGSSVRVSCQASGDTFTSHAIIWIRQAPGQGLEYLGRIIPVLDITNAAQRFLGRLTLTADKSTTTAYMELSSLRSEDTAVYYCARAPFGLIVMYDHWGQGTLVTVTA
VL: EIVLTQSPGTLSLSPGERATLSCRASQSVSGNFLAWYQQKPGQAPRLLIHETSKRATGIPDRVSGGGSGTDFTLTISRLEPEDFAVYHCQQYGTTAVTFGQGTRLDMK
B7: no binding (tested: not printed) [7]; no binding (tested: not printed) [8]; no binding (tested: not printed) [9]. B7: no binding (tested: not printed) [10].
